{"source": "paper PMC11004252", "about": "“Cooperative interaction of interferon regulatory factor -1 and bromodomain—containing protein 4 on RNA polymerase activation for intrinsic innate immunity” (Frontiers in Immunology, 2024)", "target": "T1, Bromodomain containing protein 4 (BRD4) (human (endogenous in hSAECs), UniProt O60885 1-1362)", "T1 construct": "BRD4, endogenous in hSAECs; detected in situ with rabbit BRD4 Ab (Cell Signaling 13440); also called BRD4 CRC; source: endogenous, hSAECs (fixed cells, mock or RSV infected)", "experiment": "proximity ligation; Duolink in situ PLA, mouse anti-IRF1 and rabbit anti-BRD4 Abs, fixed hSAECs, RSV infected (MOI 1, 24 h), with solvent (DMSO) or BRD4i ZL0454 (complex unaffected by BRD4i)", "settings": "partners not purified"}
{"binder": "interferon regulatory factor 1 (IRF1) (natural protein, human (endogenous in hSAECs), UniProt P10914 1-325, looked up, IRF1, endogenous in telomerase-immortalized human small airway epithelial cells (hSAECs); detected in situ with mouse IRF1 Ab (R&D MAB4830-SO); source: endogenous, hSAECs (fixed cells, mock or RSV infected)) MPITRMRMRPWLEMQINSNQIPGLIWINKEEMIFQIPWKHAAKHGWDINKDACLFRSWAIHTGRYKAGEKEPDPKTWKANFRCAMNSLPDIEEVKDQSRNKGSSAVRVYRMLPPLTKNQRKERKSKSSRDAKSKAKRKSCGDSSPDTFSDGLSSSTLPDDHSSYTVPGYMQDLEVEQALTPALSPCAVSSTLPDWHIPVEVVPDSTSDLYNFQVSPMPSTSEATTDEDEEGKLPEDIMKLLEQSEWQPTNVDGKGYLLNEPGVQPTSVYGDFSCKEEPEIDSPGGDIGLSLQRVFTDLKNMDATWLDSLLTPVRLPSIQAIPCAP", "values": [{"measurement": "fold increase of PLA complex, RSV against mock", "value": 25, "unit": "fold"}]}
